From patent publication US20060127402A1 (TECHNION RESEARCH AND DEVELOPMENT FOUNDATION, published 2006) come the findings set out here.

For the test, the target named is T1, LOR-1 (lysyl oxidase related protein-1) (human, UniProt Q9Y4K0 26-774, limits assumed).
T1 construct: also called hLOR1
T1 sequence: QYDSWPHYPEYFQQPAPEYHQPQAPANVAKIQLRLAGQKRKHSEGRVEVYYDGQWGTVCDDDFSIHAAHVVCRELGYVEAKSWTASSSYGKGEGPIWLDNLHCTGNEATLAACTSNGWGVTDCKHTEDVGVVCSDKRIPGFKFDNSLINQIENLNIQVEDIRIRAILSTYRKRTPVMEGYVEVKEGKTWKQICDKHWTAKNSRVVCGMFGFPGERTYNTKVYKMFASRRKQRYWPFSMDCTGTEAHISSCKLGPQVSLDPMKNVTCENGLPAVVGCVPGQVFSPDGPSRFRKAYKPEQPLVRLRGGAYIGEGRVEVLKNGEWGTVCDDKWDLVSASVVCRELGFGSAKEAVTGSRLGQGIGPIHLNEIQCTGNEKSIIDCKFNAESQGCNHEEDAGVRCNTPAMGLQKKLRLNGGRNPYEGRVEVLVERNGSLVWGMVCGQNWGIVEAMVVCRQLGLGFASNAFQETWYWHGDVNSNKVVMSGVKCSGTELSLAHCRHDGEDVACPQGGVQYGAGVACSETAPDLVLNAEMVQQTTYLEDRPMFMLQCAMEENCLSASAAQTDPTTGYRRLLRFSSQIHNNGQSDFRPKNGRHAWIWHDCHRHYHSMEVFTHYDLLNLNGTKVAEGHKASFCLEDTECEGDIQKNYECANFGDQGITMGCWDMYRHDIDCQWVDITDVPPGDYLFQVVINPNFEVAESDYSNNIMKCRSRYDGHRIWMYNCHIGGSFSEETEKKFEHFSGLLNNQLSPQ
Put plainly: PF4 affinity column, 35S-methionine labeled cells, SDS-PAGE.

B1: Human recombinant platelet factor-4 (PF4, GenBank Accession number M20901) (ligand, UniProt P02776 32-101, looked up)
chain: EAEEDGDLQCLCVKTTSQVRPRHITSLEVIKAGPHCPTAQLIATLKNGRKICLDLQAPLYKKIIKKLLES
notes: Supplied by Repligen Corp
Take B1: the binding result is reported as “binds”.
